To fix the notation:
B1: L-25367-evo_(D-IL-6) (designed binder)
chain: GEEEVIEYLTREFKDDPELVRLLREAIEGLLKAGEDPEIVEMLIESLIHITGNPRVAVKLAKEYA
notes: 25367-evo, evolved from design 25367 by directed evolution; the methods name only the three parents
B2: D-25367_(L-IL-6) (designed binder)
chain: G[dE][dE][dE][dV][dK][dE][dY][dL][dT][dR][dK][dF][dK][dD][dD][dP][dE][dL][dV][dR][dL][dL][dR][dE][dA][dI][dE][dV][dL][dL][dK][dA]G[dE][dD][dP][dE][dL][dV][dL][dS][dL][dI][dE][dS][dL][dI][dH][dI][dT]G[dD][dP][dR][dA][dA][dV][dK][dL][dA][dK][dE][dF]G
notes: D-protein form of design 25367; source: chemically synthesized (Fmoc SPPS), folded by dialysis, purified by SEC
B3: L-57445-evo_(D-TrkA) (designed binder)
chain: STQELVEELLELVRKDLEEARKLAKEIVKELGLSPELRFFLQLAIALAQRDPEVARRILERALNL
notes: the methods name only the three parents
B4: D-57445_(L-TrkA) (designed binder)
chain: [dS][dT][dE][dE][dL][dV][dE][dE][dL][dL][dE][dL][dA][dR][dK][dD][dP][dQ][dE][dA][dR][dK][dL][dV][dE][dE][dI][dV][dK][dE][dL]G[dL][dS][dP][dE][dR][dR][dF][dE][dL][dQ][dL][dA][dI][dV][dL][dA][dQ][dR][dD][dP][dE][dL][dA][dR][dR][dI][dL][dE][dR][dA][dL][dN][dH]
notes: source: chemically synthesized (Fmoc SPPS), folded by dialysis, purified by SEC
B5: L-57445_(D-TrkA) (designed binder)
chain: STEELVEELLELARKDPQEARKLVEEIVKELGLSPERRFELQLAIVLAQRDPELARRILERALNH
notes: source: E. coli Lemo21(DE3), purified (Ni Sepharose, SEC)
B6: L-Pep-1 (peptide)
peptide: DEHELLETAARWFYEIAKRA
modifications: also: biotinylated (site not given here)
notes: artificial amphipathic alpha-helical peptide
B7: D-25367-evo_(L-IL-6) (designed binder)
chain: G[dE][dE][dE][dV][dI][dE][dY][dL][dT][dR][dE][dF][dK][dD][dD][dP][dE][dL][dV][dR][dL][dL][dR][dE][dA][dI][dE]G[dL][dL][dK][dA]G[dE][dD][dP][dE][dI][dV][dE][dM][dL][dI][dE][dS][dL][dI][dH][dI][dT]G[dN][dP][dR][dV][dA][dV][dK][dL][dA][dK][dE][dY][dA]
notes: D-protein form of 25367-evo; source: chemically synthesized, folded
B8: D-19437_(L-Pep-1) (designed binder)
chain: G[dS][dL][dP][dV][dE][dK][dI][dI][dR][dE][dA][dK][dK][dI][dL][dD][dE][dL][dL][dK][dR]G[dL][dI][dD][dP][dE][dL][dA][dR][dI][dA][dR][dE][dV][dL][dE][dR][dA][dR][dK][dL]G[dN][dE][dE][dA][dA][dR][dF][dV][dL][dE][dL][dI][dE][dR][dL][dR][dR][dE][dL][dS]G[dS]G
notes: as for B4
B9: L-25367_(D-IL-6) (designed binder)
chain: GEEEVKEYLTRKFKDDPELVRLLREAIEVLLKAGEDPELVLSLIESLIHITGDPRAAVKLAKEFG
notes: as for B5
B10: D-57445-evo_(L-TrkA) (designed binder)
chain: [dS][dT][dQ][dE][dL][dV][dE][dE][dL][dL][dE][dL][dV][dR][dK][dD][dL][dE][dE][dA][dR][dK][dL][dA][dK][dE][dI][dV][dK][dE][dL]G[dL][dS][dP][dE][dL][dR][dF][dF][dL][dQ][dL][dA][dI][dA][dL][dA][dQ][dR][dD][dP][dE][dV][dA][dR][dR][dI][dL][dE][dR][dA][dL][dN][dL]
notes: source: chemically synthesized, folded

One series has as its target T1, D-IL-6 (human, all residues D-amino acids (glycine achiral); biotin on the N-terminus; C-terminal amide).
T1 construct: additional methionine at the N-terminus (Met1 of the chain of 186 residues); human interleukin-6, residues 28-212, made of D-amino acids; also called mirror image of human interleukin-6
Briefly: BLI; Octet RED96e; biotinylated target immobilised on streptavidin biosensors, binder in solution; PBS pH 7.4 with 0.02% TWEEN; 25 °C; global fit. Conditions: both partners purified.

The target of a further series is T2, L-IL-6 (human, biotinylated for BLI (site not stated)).
T2 construct: additional methionine at the N-terminus; human interleukin-6, residues 28-212; also called human interleukin-6
Described as above. Conditions: both partners purified.

Series [1] has as its target T3, D-TrkA (human, all residues D-amino acids (glycine achiral); biotin on the N-terminus; C-terminal amide).
T3 construct: also called mirror image of the D5 domain of human TrkA
T3 chain: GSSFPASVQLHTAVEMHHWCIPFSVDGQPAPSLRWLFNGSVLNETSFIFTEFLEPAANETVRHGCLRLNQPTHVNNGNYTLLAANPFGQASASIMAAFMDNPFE
The series is described as above. Particulars: both partners purified.

Series [2] concerns the target T3, D-TrkA. Described as above. Conditions: both partners purified.
For series [3], the target named is T4, L-TrkA (human, biotinylated for BLI (site not stated)).
T4 construct: also called D5 domain of human tropomyosin receptor kinase A
T4 chain: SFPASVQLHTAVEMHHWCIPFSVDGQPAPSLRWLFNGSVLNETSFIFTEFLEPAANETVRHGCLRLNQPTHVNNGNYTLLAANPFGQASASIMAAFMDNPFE
The series is described as above. Conditions: both partners purified.

For the series “D-19437_(L-Pep-1)”, the target named is B8. In words: ITC; MicroCal PEAQ-ITC, 19 injections; peptide titrated over the binder (L-19437 15 uM, D-Pep-1 150 uM); PBS pH 7.4; One Set of Sites mode. Conditions: both partners purified.
Series [4] deals with the molecule itself. Briefly: SEC; D-19437 alone on Superdex 75 Increase 10/300, compared with the mixture with L-Pep-1; fractions on SDS-PAGE, Coomassie blue. For orientation: Size exclusion chromatography separates by hydrodynamic size, large species first.
The series “L-Pep-1” deals with B6. Briefly: BLI; Octet RED96e; biotinylated target immobilised on streptavidin biosensors, binder in solution; PBS pH 7.4 with 0.02% TWEEN; 25 °C; global fit. Particulars: both partners purified. (BLI is a label-free optical method that tracks binding on a fibre tip over time.)
Series [5] concerns the target T4, L-TrkA. In words: MST; Nanotemper Monolith NT.115; 50 nM L-TrkA, D-57445-evo in 16 two-fold dilutions from 122 pM to 40 uM; PBS with 0.05% Tween20, pH 7.4; MST power 40%. Conditions: both partners purified.

Where “and” joins values, the source holds several entries; their conditions need not be identical. Equal values may be shown once. Square brackets hold non-standard residues; d marks the D form. Ends that are not written are not given here.

T1 sequence (chain, as listed by the source): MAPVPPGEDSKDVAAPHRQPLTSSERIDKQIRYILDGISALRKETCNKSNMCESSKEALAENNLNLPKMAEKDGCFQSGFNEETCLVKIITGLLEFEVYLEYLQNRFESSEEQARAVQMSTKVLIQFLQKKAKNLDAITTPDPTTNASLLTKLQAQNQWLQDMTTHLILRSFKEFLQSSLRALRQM
Chain of D-19437_(L-Pep-1) (chain, as listed by the source): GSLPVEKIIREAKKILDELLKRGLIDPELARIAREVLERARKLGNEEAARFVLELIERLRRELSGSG

As for B1, in the series with D-IL-6, the Kd (in general, a measure of binding affinity in units of concentration) was 0.724 nM and 1.68 nM; the koff (commonly the first-order rate constant of dissociation) is 0.000185 s⁻¹ and 0.00046 s⁻¹; the kon (as a rule, a measure of how fast the partners come together) is 256000 M⁻¹ s⁻¹ and 275000 M⁻¹ s⁻¹.
B2: in the series with L-IL-6, the dissociation constant Kd was 28.3 nM and 48.3 nM; the koff was 0.0111 s⁻¹ and 0.0102 s⁻¹; the kon was 391000 M⁻¹ s⁻¹ and 211000 M⁻¹ s⁻¹.
Consider B3, for which, in the series with D-TrkA [1], binding was put at a Kd of 7.84 ± 0.02 nM. Moreover, in the series with D-TrkA [2], the Kd is 7.85 nM and 10.9 nM; the koff is 0.000297 s⁻¹ and 0.000322 s⁻¹; the on-rate (kon) was 37800 M⁻¹ s⁻¹ and 29400 M⁻¹ s⁻¹.
In the series with L-TrkA [3], B4 had a Kd of 151 nM, a koff of 0.0351 s⁻¹ and a kon of 232000 M⁻¹ s⁻¹.
As for B5, in the series with D-TrkA [2], binding was characterised by a dissociation constant (Kd) of 152 nM, the koff was 0.0508 s⁻¹ and the kon turned out to be 334000 M⁻¹ s⁻¹.
With B6, in the series with D-19437_(L-Pep-1), the affinity, expressed as Kd, was 12.4 ± 2.1 nM and the stoichiometry N (as a rule, the number of molecules, sites or subunits per partner or assembly) stood at 0.932 ± 0.003 sites.
As for B7, in the series with L-IL-6, the Kd is 3.03 nM and 8.75 nM; the koff is 0.000328 s⁻¹ and 0.000199 s⁻¹.
Take B8: in [4], the “stoichiometry N” value turned out to be 2. For the same molecule, in the series with L-Pep-1, the Kd is 59.6 nM and 37.6 nM; the koff is 0.0162 s⁻¹ and 0.0122 s⁻¹; the kon is 272000 M⁻¹ s⁻¹ and 324000 M⁻¹ s⁻¹.
B9: in the series with D-IL-6, the Kd was 25.1 nM and 11.8 nM; the koff is 0.00758 s⁻¹; the kon is 302000 M⁻¹ s⁻¹ and 644000 M⁻¹ s⁻¹.
On to B10, for which, in the series with L-TrkA [3], the Kd was 1.73 nM and 1.8 nM; the koff is 0.000248 s⁻¹ and 0.000243 s⁻¹; the kon is 144000 M⁻¹ s⁻¹ and 135000 M⁻¹ s⁻¹. This molecule also displayed a Kd with L-TrkA [5] of 1.19 nM.

The values are drawn from publication PMC11614891, “Accurate de novo design of heterochiral protein–protein interactions” (Cell Research, 2024).
